Where two headings read alike, the source gives them in different places.
B1: Arl2^fl: full-length Arl2, mantGppNHp loaded (protein)
chain: MGLLTILKKMKQKERELRLLMLGLDNAGKTTILKKFNGEDVDTISPTLGFNIKTLEHRGFKLNIWDVGGQKSLRSYWRNYFESTDGLIWVVDSADRQRMQDCQRELQSLLVEERLAGATLLIFANKQDLPGALSCNAIQEALELDSIRSHHWRIQGCSAVTGEDLLPGIDWLLDDISSRVFTAD
modifications: left off: His tag, C-terminal, state not stated
notes: full-length Arl2, mantGppNHp loaded
B2: INPP5E(WT): GFP (LAP)-tagged mouse INPP5E stably expressed in IMCD3 cells (protein)
chain: MPSKSACLRHTEAPGQLEGRMLQGQPPNTEKKLIPTPGFLPASDSQGSETNPMPPFSIPAKTSNQNPQTKANLITPQPPIRPKLERTLSLDDKGWRRRRFRGSQEDLTVQNGASPCRGSLQDSVAQSPAYSRPLPCLSTSLQEIPKSRRATGSEGGSPSLWSDCLSGMISTSLDLLHRDAASGGPPSRLASLHASHTPPAMDLSIASSSLRTANKVDPEHTDYKLRMQTRLVRAHSNLGPSRPRSPLAGDDHSIHSARSFSLLAPIRTKDIRSRSYLEGSLLASGALLGAEELARYFPDRNMALFVATWNMQGQKELPASLDEFLLPTEADYTQDLYVIGIQEGCSDRREWETRLQETLGPQYVLLSSAAHGVLYMSLFIRRDLIWFCSEVEYSTVTTRIVSQIKTKGALGVSFTFFGTSFLFITSHFTSGDGKVAERLLDYSRTIQALALPRNVPDTNPYRSSAGDVTTRFDEVFWFGDFNFRLSGGRVAVEAFLKQKPEVDVLALLQHDQLTREMKKGSIFRGFEEAEIHFLPSYKFDIGKDTYDSTSKQRTPSYTDRVLYKSRHKGDICPMKYSSCPGIKTSDHRPVYGLFQVKVRPGRDNIPLAAGKFDRELYLIGIKRRISKEIQRQEALKSQSSSAVC
modifications: left off: LAP tag (GFP-TEV-site-S-peptide), N-terminal, kept
notes: GFP (LAP)-tagged mouse INPP5E stably expressed in IMCD3 cells
B3: INPP5E(KS) mutant: GFP-tagged INPP5E S641K/V643S protein stably expressed in IMCD3 cells (protein)
chain: MPSKSACLRHTEAPGQLEGRMLQGQPPNTEKKLIPTPGFLPASDSQGSETNPMPPFSIPAKTSNQNPQTKANLITPQPPIRPKLERTLSLDDKGWRRRRFRGSQEDLTVQNGASPCRGSLQDSVAQSPAYSRPLPCLSTSLQEIPKSRRATGSEGGSPSLWSDCLSGMISTSLDLLHRDAASGGPPSRLASLHASHTPPAMDLSIASSSLRTANKVDPEHTDYKLRMQTRLVRAHSNLGPSRPRSPLAGDDHSIHSARSFSLLAPIRTKDIRSRSYLEGSLLASGALLGAEELARYFPDRNMALFVATWNMQGQKELPASLDEFLLPTEADYTQDLYVIGIQEGCSDRREWETRLQETLGPQYVLLSSAAHGVLYMSLFIRRDLIWFCSEVEYSTVTTRIVSQIKTKGALGVSFTFFGTSFLFITSHFTSGDGKVAERLLDYSRTIQALALPRNVPDTNPYRSSAGDVTTRFDEVFWFGDFNFRLSGGRVAVEAFLKQKPEVDVLALLQHDQLTREMKKGSIFRGFEEAEIHFLPSYKFDIGKDTYDSTSKQRTPSYTDRVLYKSRHKGDICPMKYSSCPGIKTSDHRPVYGLFQVKVRPGRDNIPLAAGKFDRELYLIGIKRRISKEIQRQEALKSQSSKASCTVS
modifications: left off: LAP tag (GFP-TEV-site-S-peptide), N-terminal, kept
notes: GFP-tagged INPP5E S641K/V643S protein stably expressed in IMCD3 cells

How the values were obtained:
[1] = test system: PDE6δ; assay: Stopped-flow fluorescence polarization kinetics of mantGppNHp-loaded Arl proteins with PDE6δ; type: binding; details: for association rate constant kon with PDE6δ: 0.2 μM mantGppNHp-loaded Arl protein, increasing PDE6δ; for association rate constant kon with PDE6δ / dissociation rate constant koff from PDE6δ: 20 °C; for association rate constant kon with PDE6δ / dissociation rate constant koff from PDE6δ / Kd: n=4; for dissociation rate constant koff from PDE6δ: 2 μM PDE6δ with 0.2 μM mantGppNHp-loaded Arl protein, 200-fold excess unlabelled Arl protein; for Kd: calculated from kinetic constants, ± s.d., read-out: equilibrium dissociation constant Kd with PDE6δ (Kd=koff/kon)
Procedure: Previously we have shown that the N-terminal helix of Arl3 is important to release myristoylated cargo from a complex with the shuttle factor UNC119 (ref. [30]). To find out whether the N-terminus of Arl3 and/or Arl2 has a similar if any role in the interaction with PDE6δ, fluorescence polarization measurements using full-length Arl3 (Arl3^fl) or an N-terminal truncated form (Arl3^ΔN) were performed. […] To investigate the role of the N-terminal helix of Arl3 in the release mechanism, we measured association and dissociation rate constants to determine the affinity of PDE6δ towards Arl2 and Arl3 in both full-length and N-terminal truncated forms. Association rate constants between the four proteins Arl3^fl, Arl3^ΔN, Arl2^fl and Arl2^ΔN are rather similar although association is almost twice as fast for full-length Arl3 as compared with Arl2 (Fig. 3a,b). […] The Kd values for Arl2^fl and Arl3^fl differ from previously determined values, likely because of the different techniques used.
Figure 3 Contribution of the N-terminal helix of Arl3 to the binding affinity with PDE6δ. (a) Stopped-flow fluorescence polarization kinetic measurements of the association of 0.2 μM mantGppNHp loaded Arl proteins with increasing concentrations of PDE6δ. The observed pseudo-first order rate constants (kobs) are plotted against PDE6δ concentration. (b) Bar charts of the association rate constants (kon) determined in a. (c,d) Stopped-flow fluorescence polarization kinetic experiments where complexes of 2 μM PDE6δ with 0.2 μM of full-length (Arl^fl) or N-terminally deleted (Arl^ΔN) mantGppNHp loaded Arl proteins as indicated were mixed with 200-fold excess of unlabelled Arl proteins to determine koff. (e) Bar charts of the dissociation rate constants (koff) from experiments in c,d. (f) Bar charts of the equilibrium dissociation constants (Kd) of complexes between PDE6δ and Arl proteins as determined from the kinetic constants in c,e. Error bars indicate s.d., n=4. TEXT PRINTED IN THE PICTURE: (b) Arl3^fl: kon (μM^-1s^-1): 5.97 | (b) Arl3^ΔN: kon (μM^-1s^-1): 4.25 | (b) Arl2^fl: kon (μM^-1s^-1): 2.25 | (b) Arl2^ΔN: kon (μM^-1s^-1): 3.09 | (e) Arl3^fl: koff (s^-1): 0.035 | (e) Arl3^ΔN: koff (s^-1): 0.92 | (e) Arl2^fl: koff (s^-1): 0.33 | (e) Arl2^ΔN: koff (s^-1): 0.98 | (f) Arl3^fl: kd (nM): 5.84 | (f) Arl3^ΔN: kd (nM): 217 | (f) Arl2^fl: kd (nM): 149 | (f) Arl2^ΔN: kd (nM): 319
All fluorescence polarization measurements were performed at 20 °C in a buffer containing 25 mM Tris-HCl (pH 7.5), 50 mM NaCl and 3 mM DTE. For the titration measurement, data were recorded with Fluoromax-4 spectrophotometer (HORIBA Jobin Yvon, Munich, Germany) with excitation and emission wavelengths at 530 and 580 nm for TAMRA-labelled INPP5E peptide and at 495 and 520 nm for fluorescein-labelled Rheb peptide. The kinetic measurements were monitored by a stopped-flow apparatus (Applied Photophysics) in the polarization mode using an excitation wavelength of 366 nm and filter with 420 nm cutoff for mantGppNHp bound Arl protein, excitation wavelength of 495 nm and filter with 520 nm cutoff for fluorescein-labelled Rheb peptide and excitation wavelength of 530 nm and filter with 570 nm cutoff for TAMRA-labelled INPP5E peptide. Data analysis was done with GraFit 5.0 program (Erithracus Software). Concentrations used for each experiment are indicated in the corresponding figure legend.

[2] = test system: GST-PDE6δ; assay: GST-PDE6δ pull-down and release by Arl2/Arl3 from IMCD3 lysates; type: binding; details: 20 μM GST-PDE6δ on GSH-beads, 20 μM Arl2 or Arl3, 1 h 4 °C, anti-GFP immunoblot
Procedure: Figure 5 INPP5E ciliary enrichment is dependent on high affinity to PDE6δ. […] White bar indicates 5 μm. (b) Bar chart showing ratio of GFP intensity in cilia to the total GFP intensity, indicating the enrichment of GFP-tagged protein in cilia. […] Error bars indicate s.d., n≥35 (P<0.05; Student’s t-test). […] Formed complexes in the pulldown experiment were incubated with Arl2 or Arl3 as indicated. The amount of GFP-tagged interacting proteins bound to GST-PDE6δ was detected by immunoblotting with an antibody against GFP.
IMCD3 cells stably expressing GFP-INPP5E(WT) or GFP-INPP5E(KS) were lysed in lysis buffer containing 75 mM Hepes pH 7.5, 150 mM KCl, 1.5 mM EGTA, 1.5 mM MgCl2, 15% glycerol, 0.2% NP-40 and one protease inhibitor cocktail tablet (Roche). Cell lysates were cleared and supernatants were incubated for 1 h at 4 °C with 100 μl GSH-beads conjugated with 20 μM GST-PDE6δ. For the release assay, 20 μM of either Arl2 or Arl3 were added to the previous mixture and incubated for further 1 h at 4 °C. After 5 times washing with the lysis buffer, the complexes were analysed by western blotting using anti-GFP antibody (1:500; Santa Cruz Biotechnology sc-9996) and anti GST (1:5,000; home source). Full scans of western blots are provided in Supplementary Fig. 6.

| Molecule | difference in koff / residence time with PDE6δ, full-length versus N-terminally deleted form [1] | association rate constant kon with PDE6δ [1] [M⁻¹ s⁻¹] | association rate constant kon with PDE6δ ([1]; listed as Arl2^ΔN) [M⁻¹ s⁻¹] | dissociation rate constant koff from PDE6δ [1] [s⁻¹] | dissociation rate constant koff from PDE6δ ([1]; listed as Arl2^ΔN) [s⁻¹] | Kd ([1]; listed as Arl2^ΔN) [nM] | Kd [1] [nM] | release from GST-PDE6δ by Arl2·GppNHp / Arl3·GppNHp [2] |
| --- | --- | --- | --- | --- | --- | --- | --- | --- |
| B1 | threefold | 2.25e+06 | 3.09e+06 | 0.33 | 0.98 | 316 ± 6.3 | 149 ± 19 | – |
| B2 | – | – | – | – | – | – | – | specifically released only by Arl3·GppNHp |
| B3 | – | – | – | – | – | – | – | can indeed be released by both Arl2·GppNHp and Arl3·GppNHp |
